The numbers were not newly measured in publication PMC5040959, which cites them from elsewhere.

The series has as its target Glu286 (UniProt position 286, FFGHPEVYIIV). The series can be described thus: kinetics. The note with it: fully reduced CytcO reacting with O2, F -> O step.

In the case of “Cytochrome c oxidase (cytochrome aa3), subunit I (Rhodobacter sphaeroides)”, the pKa is given as approximately 9.

As a reminder, the pKa is the pH at which an ionisable group is half protonated.
